Measurements reported in the supplement of paper PMC7877785.
± gives the uncertainty stated by the source.

Test: self-splicing fitness, log relative to wild type (ln ratio); higher = more splicing; Tetrahymena group I intron in knt gene, E. coli kanamycin selection, DiMSum; sequences stand for … in CUCUCU…GGAGGGAAAAGUUAUCAGGCAUGCACCUGGUAGCUAGUCUUUAAACCAAUAGAUUGCAUCGGUUUAAAAGGCAAGACCGUCAAAUUGCGGGAAAGGGGUCAACAGCCGUUCAGUACCAAGUCUCAGGGGAAACUUUGAGAUGGCCUUGCAAAGGGUAUGGUAAUAAGCUGACGGACAUGGUCCUAACCACGCAGCCAAGUCCUAAGUCAACAGAUCUUCUGUUGAUAUGGAUGCAGUUCACAGACUAAAUGUCGGUCGGGGAAGAUGUAUUCUUCUCAUAAGAUAUAGUCGGACCUCUCCUUAAUGGGAGCUAGCGGAUGAAGUGAUGCAACACUGGAGCCGCUGGGAACUAAUUUGUAUGCGAAAGUAUAUUGAUUAGUUUUGGAGUACUCGUGGUCG
Method in brief: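 Colonies from six replicate transformations of E. coli BL21(DE3) were pooled and amplicon-sequenced on an Illumina HiSeq 2500. The library placed an intron with all eight P1ex-region nucleotides randomised inside the knt kanamycin-resistance gene on pET-22b(+), and cells grew overnight at 37°C or 30°C on LB agar with or without 25 μg/mL kanamycin (plus 100 μg/mL carbenicillin, 50 μM IPTG, 0.2% rhamnose). Fitness is the DiMSum error-weighted combination of wild-type-normalised replicate fold changes, kanamycin versus none.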

Row | Sequence | self-splicing fitness (ln) (30 °C) | self-splicing fitness (ln) (37 °C)
1 | UGGCAGCAAUAUUACGGUUC | -2.14 ± 0.2 | -0.624 ± 0.19
2 | UGGCAGCAAUAUUACGUAAG | -0.674 ± 0.049 | 0.00441 ± 0.073
3 | UGGCAGCAAUAUUACGUACU | 0.384 ± 0.091 | 0.181 ± 0.12
4 | UGGCAGCAAUAUUACGUAGC | -4.18 ± 0.29 | -2.28 ± 0.19
5 | UGGCAGCAAUAUUACGUAGU | -2.99 ± 0.15 | -1.8 ± 0.2
6 | UGGCAGCAAUAUUACGUCGC | -3.89 ± 0.31 | -2.95 ± 0.43
7 | UGGCAGCAAUAUUACGUGAA | -0.78 ± 0.058 | -0.431 ± 0.084
8 | UGGCAGCAAUAUUACGUGAG | -0.544 ± 0.047 | 0.438 ± 0.077
9 | UGGCAGCAAUAUUACGUUUG | -0.921 ± 0.06 | -0.496 ± 0.089
10 | UGGGAGCAAUAUUACGAACU | -0.981 ± 0.1 | -1.42 ± 0.19
11 | UGGGAGCAAUAUUACGAAGG | – | -1.1 ± 0.41
12 | UGGGAGCAAUAUUACGACGA | – | -0.296 ± 0.36
13 | UGGGAGCAAUAUUACGAGCG | -1.56 ± 0.14 | -0.816 ± 0.15
14 | UGGGAGCAAUAUUACGAUCA | -0.66 ± 0.22 | -0.124 ± 0.19
15 | UGGGAGCAAUAUUACGAUCG | -1.33 ± 0.13 | -0.561 ± 0.15
16 | UGGGAGCAAUAUUACGCACA | -0.967 ± 0.35 | 0.399 ± 0.35
17 | UGGGAGCAAUAUUACGCAGA | -1.08 ± 0.48 | -3 ± 0.35
18 | UGGGAGCAAUAUUACGCAGC | – | -3.01 ± 0.49
19 | UGGGAGCAAUAUUACGCGCA | -1.66 ± 0.15 | -1.16 ± 0.19
20 | UGGGAGCAAUAUUACGCUCA | – | -2.72 ± 0.28
21 | UGGGAGCAAUAUUACGGAAU | – | -1.69 ± 0.48
22 | UGGGAGCAAUAUUACGGACU | -1.17 ± 0.36 | -2.35 ± 0.46
23 | UGGGAGCAAUAUUACGGCGU | – | -0.706 ± 0.28
24 | UGGGAGCAAUAUUACGUAGG | -3.24 ± 0.31 | -1.93 ± 0.32
25 | UGGGAGCAAUAUUACGUCCU | – | -1.3 ± 0.26
26 | UGGGAGCAAUAUUACGUGUA | – | -2.2 ± 0.26

Row | Sequence | self-splicing fitness (ln) (30 °C) | self-splicing fitness (ln) (37 °C)
27 | UGGGAGCAAUAUUACGUUGC | -3.43 ± 0.4 | -1.53 ± 0.23
28 | UGGUAGCAAUAUUACGAACA | -0.325 ± 0.15 | 0.205 ± 0.27
29 | UGGUAGCAAUAUUACGAGAG | -3.55 ± 0.28 | -2.16 ± 0.21
30 | UGGUAGCAAUAUUACGAGUG | -1.17 ± 0.13 | -0.313 ± 0.16
31 | UGGUAGCAAUAUUACGAUAU | -2.62 ± 0.16 | -1.62 ± 0.16
32 | UGGUAGCAAUAUUACGCCCU | -0.668 ± 0.16 | 0.287 ± 0.16
33 | UGGUAGCAAUAUUACGCGAU | -2.54 ± 0.28 | -0.974 ± 0.26
34 | UGGUAGCAAUAUUACGCUUC | -2.63 ± 0.29 | -0.643 ± 0.35
35 | UGGUAGCAAUAUUACGGCUU | 0.166 ± 0.18 | -0.0657 ± 0.2
36 | UGGUAGCAAUAUUACGGUGC | -2.31 ± 0.34 | –
37 | UGGUAGCAAUAUUACGGUUC | -3.54 ± 0.46 | -3.1 ± 0.47
38 | UGGUAGCAAUAUUACGGUUU | -2.64 ± 0.17 | -2.6 ± 0.23
39 | UGGUAGCAAUAUUACGUCCG | -0.727 ± 0.15 | -0.449 ± 0.24
40 | UGUAAGCAAUAUUACGAACA | -0.358 ± 0.14 | 0.219 ± 0.17
41 | UGUAAGCAAUAUUACGAAGA | – | -0.905 ± 0.37
42 | UGUAAGCAAUAUUACGACAA | -0.378 ± 0.16 | -0.666 ± 0.14
43 | UGUAAGCAAUAUUACGACAC | -2.51 ± 0.41 | –
44 | UGUAAGCAAUAUUACGACGG | -1.46 ± 0.11 | -0.11 ± 0.12
45 | UGUAAGCAAUAUUACGACUC | -1.52 ± 0.19 | -0.632 ± 0.25
46 | UGUAAGCAAUAUUACGAGUU | -2.78 ± 0.13 | -2.69 ± 0.23
47 | UGUAAGCAAUAUUACGAUAU | -3.01 ± 0.3 | -0.86 ± 0.24
48 | UGUAAGCAAUAUUACGAUUG | -1 ± 0.081 | -0.574 ± 0.097
49 | UGUAAGCAAUAUUACGCAAU | -3.44 ± 0.18 | -3.36 ± 0.2
50 | UGUAAGCAAUAUUACGCAUG | -1.95 ± 0.099 | 0.308 ± 0.14
51 | UGUAAGCAAUAUUACGCCCU | -0.237 ± 0.19 | -0.575 ± 0.24
52 | UGUAAGCAAUAUUACGCCUC | -3.28 ± 0.32 | -2.25 ± 0.24
